Test results: patent publication US12258396 (MEDICOVESTOR, dated 2025)

B1: Mirvetuximab (antibody, V domains shown)
VH: QVQLVQSGAEVVKPGASVKISCKASGYTFTGYFMNWVKQSPGQSLEWIGRIHPYDGDTFYNQKFQGKATLTVDKSSNTAHMELLSLTSEDFAVYYCTRYDGSRAMDYWGQGTTVTVSS
VL: DIVLTQSPLSLAVSLGQPAIISCKASQSVSFAGTSLMHWYHQKPGQQPRLLIYRASNLEAGVPDRFSGSGSKTDFTLTISPVEAEDAATYYCQQSREYPYTFGGGTKLEIK
B2: lead fully-human anti-FRalpha IgG1 antibody (antibody according to SEQ ID NO: 3-12) (antibody, V domains shown)
VH: EVQLLESGGGLVKPGGSLRLSCAASGFTFSSYTMNWVRQAPGKGLEWVSSISSGGGYIYYADSVKDRFTISRDNAKNSLYLQMNSLRAEDTAVYYCAKGDTIMIISAWGQGTTVTVSS
VL: DIQLTQSPSTLSASVGDRVTITCRASQSISSWLAWHQQKPGKAPKLLIYAASSLQNGVPSRFSGSGFGTDFTLTISSLQPEDFATYYCQQASSFPLTFGGGTKVEIKR
notes: Fully human IgG1/kappa; also called lead antibody; lead anti-FRalpha antibody

Experiments:
[1] = biological target: T1, fusion protein containing the extracellular domain of cynomolgus FRalpha and a polyhistidine tag (cynomolgus, UniProt A0A2K5U044 25-233); test: ELISA, plate coated with cynomolgus FRalpha ECD-His, anti-human-IgG-Fc-HRP detection
T1 construct: extracellular domain; Coated on ELISA plates; also called cynomolgus FRalpha extracellular domain; not shown: polyhistidine tag

[2] = biological target: T2, fusion protein containing the extracellular domain of human FRalpha and a polyhistidine tag (human, UniProt P15328 25-233); test: ELISA, plate coated with human FRalpha ECD-His, anti-human-IgG-Fc-HRP detection
T2 construct: extracellular domain; Coated on ELISA plates; also called human FRalpha extracellular domain; not shown: polyhistidine tag
Experimental: The affinity of each IgG1 for FRalpha was confirmed by ELISA. Briefly, a fusion protein containing the extracellular domain of human FRalpha and a polyhistidine tag was used to coat ELISA plates, which were washed three times with phosphate-buffered saline (PBS) containing 0.1 percent polysorbate 20 (PBST), then blocked with PBS containing 5 percent powdered milk (PBSM), and then washed three more times with PBST. Wells were then incubated with antibodies at varying concentrations for 60 minutes at room temperature in 1 percent PBSM. Wells were then washed three times with PBST, after which the secondary, horse-radish-peroxidase-conjugated antibody anti-human-IgG-Fc-HRP (ab97225, Abcam, United Kingdom) was added at a 1:8000 dilution in 1 percent PBSM for 50 minutes at room temperature. The wells were then washed six times with PBST, after which 3,3',5,5"-tetramethylbenzidine (TMB) was added. The reaction was stopped with 2 molar sulfuric acid, and the TMB diamine product was quantified at 450 nanometers in a plate reader. Results are depicted in FIG. 2.

[3] = biological target: T3, human FRalpha expressed on cells (transfected HEK293 cells; SKOV3 human ovarian cancer cells) (human, UniProt P15328 25-234); test: flow cytometry on HEK293 cells transfected to express FRalpha, PE anti-human IgG Fcgamma detection
T3 construct: whole, on cells; also called human folate receptor alpha
Experimental: (§1) The affinity of each antibody was then assessed by flow cytometry. Briefly, HEK293 cells transfected to express FRalpha were washed with fluorescence-activated cell sorting (FACS) buffer, to which the IgGs were added at varying concentrations and incubated at 4 degrees Celsius for 60 minutes. The cells were then centrifuged and washed twice in FACS buffer. A phycoerythrin-labelled anti-human IgG, Fcgamma antibody (109-115-098; Jackson ImmunoResearch, Pennsylvania, United States) was then added to the cells at a 1:200 dilution and incubated at 4 degrees Celsius for 30 minutes. The cells were then washed, resuspended in FACS buffer, and counted by flow cytometry. Results are depicted in FIG. 4.

[4] = biological target: T3, human FRalpha expressed on cells …; test: flow cytometry on SKOV3 human ovarian cancer cells that express FRalpha
Experimental: as §1
The flow cytometry experiment of the preceding paragraph was repeated with a human ovarian cancer cell line that expresses FRalpha, SKOV3. Results are depicted in FIGS. 5A and 5B. […] The antibody according to SEQ ID NO: 3-12 was then designated the lead antibody for further development.

T3 sequence (P15328 25-234): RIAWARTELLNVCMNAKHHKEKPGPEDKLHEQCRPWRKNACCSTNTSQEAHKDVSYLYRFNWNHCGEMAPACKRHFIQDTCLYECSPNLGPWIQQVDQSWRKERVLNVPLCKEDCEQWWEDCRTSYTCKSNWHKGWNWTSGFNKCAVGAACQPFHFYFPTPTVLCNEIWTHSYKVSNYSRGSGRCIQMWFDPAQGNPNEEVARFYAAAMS
T1 sequence (A0A2K5U044 entry or part of it): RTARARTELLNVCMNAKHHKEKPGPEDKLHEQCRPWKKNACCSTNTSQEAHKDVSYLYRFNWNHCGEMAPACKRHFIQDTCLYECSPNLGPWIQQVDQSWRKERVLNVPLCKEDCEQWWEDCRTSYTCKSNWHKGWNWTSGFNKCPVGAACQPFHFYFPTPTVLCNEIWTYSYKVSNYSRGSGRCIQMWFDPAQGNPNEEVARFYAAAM
T2 sequence (P15328 25-233 limits assumed): as the sequence (A0A2K5U044 entry or part of it) above, with T2I, R4W, K37R, P146A, Y171H counted along it

Binder | EC50 [1] | EC50 [2] | EC50 [3] | EC50 [4]
B1 | ~0.16 nM | ~0.12 nM | ~4 nM | –
B2 | ~0.06 nM | ~0.05 nM | ~5 nM | < 1 nM
